{"source": "patent US12060408B2", "about": "“Screening assays, modulators and modulation of activation of Receptor for Advanced Glycation End-products (RAGE)” (Monash University, priority 2017, dated 2024)", "key": {"CXCR3": {"target": "T1, CXCR3 (Homo sapiens, UniProt P49682)", "T1 construct": "expressed in transfected cells; host or cells: HEK293FT, transient", "T1 sequence (P49682 whole entry, species assumed)": "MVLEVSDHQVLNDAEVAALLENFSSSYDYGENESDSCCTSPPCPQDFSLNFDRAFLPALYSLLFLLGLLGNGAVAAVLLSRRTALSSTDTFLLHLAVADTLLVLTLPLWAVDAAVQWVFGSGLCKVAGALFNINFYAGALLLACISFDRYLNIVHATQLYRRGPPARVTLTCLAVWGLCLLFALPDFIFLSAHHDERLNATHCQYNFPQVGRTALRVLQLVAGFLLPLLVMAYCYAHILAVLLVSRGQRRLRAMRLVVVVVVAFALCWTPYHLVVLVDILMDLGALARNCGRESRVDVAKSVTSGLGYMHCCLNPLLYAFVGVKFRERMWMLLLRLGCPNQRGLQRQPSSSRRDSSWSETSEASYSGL", "T1 sequence (P32121 whole entry partner, species assumed)": "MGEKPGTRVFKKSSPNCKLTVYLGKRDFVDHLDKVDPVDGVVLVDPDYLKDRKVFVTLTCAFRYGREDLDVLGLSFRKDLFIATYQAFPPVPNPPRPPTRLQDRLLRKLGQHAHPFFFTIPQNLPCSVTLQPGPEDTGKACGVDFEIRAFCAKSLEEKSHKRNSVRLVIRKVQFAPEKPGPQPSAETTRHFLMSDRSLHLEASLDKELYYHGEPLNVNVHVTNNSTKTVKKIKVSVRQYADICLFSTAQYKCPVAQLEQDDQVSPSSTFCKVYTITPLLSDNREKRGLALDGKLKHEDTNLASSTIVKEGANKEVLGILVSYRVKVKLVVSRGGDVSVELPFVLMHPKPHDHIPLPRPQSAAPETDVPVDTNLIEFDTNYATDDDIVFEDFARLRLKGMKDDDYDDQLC", "experiment": "Receptor-HIT BRET, β-arr2/Venus with RAGE/Rluc8 and CXCR3", "type": "cell-based", "settings": "in the presence of CXCR3", "excerpt": "(§1) Bioluminescence Resonance Energy Transfer (BRET)\n(§2) BRET is an established technology for studying protein-protein proximity in live cells, particularly involving GPCRs (Pfleger and Eidne, 2006). One protein of interest was linked to a bioluminescent donor enzyme, Rluc8, a variant of Renilla luciferase, and a second linked to an acceptor fluorophore, Venus, a variant of green fluorescent protein. If in close proximity (<10 nm), energy resulting from the rapid oxidation of a cell-permeable coelenterazine substrate by the donor can transfer to the acceptor, which in turn fluoresces at a longer characteristic wavelength.\n(§3) Plasmids were transiently co-expressed in human embryonic kidney (HEK) 293FT cells and BRET measurements taken at 37° C. using a POLARstar Omega or LUMIstar plate reader (BMG Labtech, Mornington, Victoria, Australia) with 460-490 nm (‘donor emission’) and 520-550 nm (‘acceptor emission’) filters, or a VICTOR Light plate reader (Perkin Elmer, Glen Waverley, Victoria, Australia) with 400-475 nm (‘donor emission’) and 520-540 nm (‘acceptor emission’) filters, or a CLARIOstar plate reader (BMG Labtech, Mornington, Victoria, Australia) with 420-480 nm (‘donor emission’) and 520-620 nm (‘acceptor emission’) filters. […]\n(§4) For BRET kinetic assays, the final pre-treatment reading is presented at the zero time point (time of ligand/vehicle addition). […]"}, "CCR7": {"target": "T2, CCR7 (Homo sapiens, UniProt P32248)", "T2 construct": "expressed in transfected cells; host or cells: HEK293FT, transient", "T2 sequence (P32248 25-378)": "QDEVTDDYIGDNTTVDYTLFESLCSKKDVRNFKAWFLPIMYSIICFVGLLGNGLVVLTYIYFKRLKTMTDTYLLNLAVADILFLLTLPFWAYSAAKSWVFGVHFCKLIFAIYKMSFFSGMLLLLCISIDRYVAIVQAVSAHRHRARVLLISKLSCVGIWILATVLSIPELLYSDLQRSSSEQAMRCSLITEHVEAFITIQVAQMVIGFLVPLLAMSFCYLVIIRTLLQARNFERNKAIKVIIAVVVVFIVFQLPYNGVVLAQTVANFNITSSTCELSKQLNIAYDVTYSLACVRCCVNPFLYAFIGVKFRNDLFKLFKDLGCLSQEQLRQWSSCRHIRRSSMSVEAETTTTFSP", "T2 sequence (P32121 whole entry partner)": "as the sequence (P32121 whole entry partner, species assumed) above", "experiment": "Receptor-HIT BRET, β-arr2/Venus with RAGE/Rluc8 and CCR7", "type": "cell-based", "settings": "in the presence of CCR7", "excerpt": "as §1, §2, §3, §4"}, "CCR1": {"target": "T3, CCR1 (Homo sapiens, UniProt P32246)", "T3 construct": "expressed in transfected cells; host or cells: HEK293FT, transient", "T3 sequence (P32246 whole entry)": "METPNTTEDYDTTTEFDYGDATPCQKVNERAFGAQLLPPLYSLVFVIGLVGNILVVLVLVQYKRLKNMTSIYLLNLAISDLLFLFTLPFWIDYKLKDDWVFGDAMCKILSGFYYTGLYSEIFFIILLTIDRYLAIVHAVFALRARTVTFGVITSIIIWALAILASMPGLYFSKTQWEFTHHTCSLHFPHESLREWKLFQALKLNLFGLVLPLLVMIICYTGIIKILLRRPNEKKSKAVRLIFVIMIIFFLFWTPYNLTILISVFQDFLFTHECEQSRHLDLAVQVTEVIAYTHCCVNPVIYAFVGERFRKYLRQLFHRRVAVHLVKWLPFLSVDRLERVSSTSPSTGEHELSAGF", "T3 sequence (P32121 whole entry partner)": "as the sequence (P32121 whole entry partner, species assumed) above", "experiment": "Receptor-HIT BRET, β-arr2/Venus with RAGE/Rluc8 and CCR1", "type": "cell-based", "settings": "in the presence of CCR1", "excerpt": "as §1, §2, §3, §4"}, "[1]": {"tested_on": "RAGE ligand-dependent signalling", "settings": "Putranto et al., 2013; cited from earlier work"}, "TIRAP": {"target": "TIRAP (Homo sapiens, UniProt P58753)", "sequence (P58753 whole entry, species assumed)": "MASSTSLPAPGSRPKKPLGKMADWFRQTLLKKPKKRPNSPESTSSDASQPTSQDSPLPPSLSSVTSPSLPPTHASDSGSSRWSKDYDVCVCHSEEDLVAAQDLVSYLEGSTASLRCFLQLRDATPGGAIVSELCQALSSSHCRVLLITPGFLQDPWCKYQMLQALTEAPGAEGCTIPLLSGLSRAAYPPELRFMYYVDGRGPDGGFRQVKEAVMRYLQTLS", "settings": "Putranto et al., 2013; cited from earlier work"}}}
{"substance": "CXCL11: chemokine ligand used to activate CXCR3", "values": [{"measurement": "recruitment of β-arr2/Venus proximal to RAGE/Rluc8", "setting": "CXCR3", "result": "Lack of"}]}
{"substance": "CCL19: chemokine ligand used to activate CCR7", "values": [{"measurement": "recruitment of β-arr2/Venus proximal to RAGE/Rluc8", "setting": "CCR7", "result": "recruitment"}]}
{"substance": "CCL3: chemokine ligand used to activate CCR1", "values": [{"measurement": "recruitment of β-arr2/Venus proximal to RAGE/Rluc8", "setting": "CCR1", "result": "recruitment"}]}
{"substance": "S391A-RAGE387-395: fragment of RAGE cytosolic tail of Putranto et al., 2013 (ELNQAEEPE; cytosolic tail peptide; UniProt Q15109 387-395, looked up, variant S391A)", "values": [{"measurement": "attenuation of apoptosis induced by RAGE ligand S100B", "setting": "[1]", "result": "did not attenuate"}, {"measurement": "binding to TIRAP", "setting": "TIRAP", "result": "did not show any appreciable binding"}]}
